Series [1] can be described thus: Restoration of the enzymatic activity (ABTS oxidation) after photolysis at 366 nm. The format is biochemical. Conditions: after irradiating for 30 min at 366 nm; ABTS 1 mM, H2O2 1 mM. Here is the method:
The oxidation catalyst is reactivated by irradiation of the solutions of the various conjugates (1 mg/ml) in sodium acetate buffer (25 mM, pH 4.4). Photolysis takes place at 366 nm (100 W UV lamp, 7 mW/cm^2 at a distance of 30 cm); the irradiation times vary from 5 to 30 min. This stage is advantageously carried out in the presence of 5 mM of 2-ethanolamine in order to trap possible cross reactions between photolysis products and hemoglobin.
The restoration of the enzymatic activity is determined in microtitration plates as described above in the presence of ABTS (1 mM) and H2O2 (1 mM).

Series [2] is described as follows: Inhibition of the oxidation of ABTS by NPE-hemoglobin conjugates (microtitration plate, H2O2). Particulars: oxidation of ABTS 1 mM, H2O2 1 mM, sodium acetate buffer pH 5, before dialysis. The format is biochemical. Here is the method: Bovine hemoglobin in aqueous solution (32 μM) is treated with different concentrations of 1-(2-nitrophenyl)ethyldiazoethane (NPE-diazo) in solution in DMSO at 20° C. for 1 h in darkness. The final concentration of DMSO should not exceed 5%. The NPE-diazo concentrations vary from 50 to 100 equivalents with respect to the hemoglobin. The coupling reaction is halted by addition of a 100 mM acetate buffer solution at pH 4.4 (1 equivalent with respect to NPE-diazo). The contact times vary from 10 to 30 min. The reaction mixture is subsequently dialyzed against water, between 4 and 20° C., between 1 and 16 hours, against 1000 volumes of water. The conjugate is stored at 20° C.
The percentage of inhibition of the oxidation of ABTS [diammonium salt of 2,2′-azinobis(3-ethylbenzothiazolinone-6-sulfonic acid), 1 mM] is determined before dialysis on 96-well microtitration plates (Costar, Corning Incorporated) in sodium acetate buffer, […], pH 5, in the presence of 1 mM of hydrogen peroxide. The number of molecules attached per hemoglobin molecule is determined by mass spectrometry (electrospray).

Turning to “Hb-50: Bovine hemoglobin treated with 50 equivalents of 1-(2-nitrophenyl)ethyldiazoethane (NPE-diazo); NPE-hemoglobin conjugate”, the “activity recovered after irradiation” value in series [1] is 57%. The “Residual activity (%)” value in series [2] is given as 12.6%. For “Hb-75: Bovine hemoglobin treated with 75 equivalents of 1-(2-nitrophenyl)ethyldiazoethane (NPE-diazo); NPE-hemoglobin conjugate” the same measures were 28% and 5.4%. Turning to “Hb-100: Bovine hemoglobin treated with 100 equivalents of 1-(2-nitrophenyl)ethyldiazoethane (NPE-diazo); NPE-hemoglobin conjugate”, the “activity recovered after irradiation” value in series [1] is recorded as 16%. Further, in series [2], the “Residual activity (%)” value came out at 2.5%. Turning to “Native hemoglobin: Untreated bovine hemoglobin, oxidation catalyst used as 100% activity reference [reference compound]”, in series [2], the “Residual activity (%)” value came out at 100%.

Source of the values: patent US7951210B2, “Support-colouring means” (Doublet Luc, priority 2004, dated 2011).
